Experimental data as given in patent US6362319B1, “Glial cell line-derived neurotrophic factor” (Amgen Inc., priority 1991, dated 2002).
Substitutions are numbered along the chain they refer to.

Legend:
[1] = tested on: dopaminergic neurons in rat embryo (E16) mesencephalic cell cultures; experiment: Bioassay for dopaminergic neurotrophic activity: 3H-dopamine uptake in dissociated mesencephalic cell cultures; assay type: cell-based; details: for ED50 for increasing dopamine uptake: rat embryo (E16) mesencephalic culture; for SP. ACT (specific activity, dopamine uptake trophic units per protein): TU = reciprocal of dilution giving 50% of maximal stimulation of 3H-DA uptake; for FOLD (specific activity relative to B49 conditioned medium): purification fold over CM; for BIOACTIVITY: total trophic units at purification step
Description: The dopaminergic activity of the GDNF is used to facilitate the purification process. […] Briefly, cultures of dissociated mesencephalic cells are prepared, either in serum rich or serum free environments. Samples to be tested for dopaminergic activity are desalted and serially added to the cell cultures and the dishes are incubated for 6 days at 37° C. in a humidified atmosphere containing 6.5% CO2. The cultures, in the presence of the testing material, are then incubated at 37° C. with tritiated dopamine (^3H-DA). The dopamine uptake is halted, the cells washed, and the dopamine uptake analyzed by scintillation counting of retained tritium in the cultures.
Culture conditions: Dissociated mesencephalic cell cultures were prepared as previously described (Friedman and Mytilineou 1987 Neurosci. Lett. 79:65-72), with minor modifications. Briefly, rostral mesencephalic tegmentum from brains of Sprague-Dawley rat embryos, at the 16th day of gestation, were dissected under the microscope in sterile conditions, collected in Ca^2+- and Mg^2+-free Dulbecco's phosphate buffered saline (Gibco, Gaithersburg, Md.) and dissociated mechanically by mild trituration. The cells were plated in 100 μl per well onto 16-mm diameter tissue culture wells (Falcon, Lincoln Park, N.J., 24-well plate) containing 400 μl medium to give a density of 2.5-3.5×10^5 cells per well. The culture wells had been previously exposed to 0.1 mg/ml solution of poly L-ornithine in 10 mM sodium borate, pH 8.4, for 3 hours at 37° C., washed 3 times in milli-Q H2O and once in Earle's balanced salt solution (Gibco). The feeding medium (10/10) consisted of minimal essential medium (MEM, Gibco) supplemented with glucose (33 mM), sodium bicarbonate (24.5 mM), glutamine (2 mM), HEPES (15 mM), penicillin G (5 U/ml), streptomycin (5 μg/ml), 10% heat-inactivated fetal calf serum (Gibco) and 10% heat inactivated horse serum (Gibco). The cultures were kept at 37° C. in a water-saturated atmosphere containing 6.5% CO2. After 3 hours, when most of the cells had adhered to the bottom of the well, the medium was replaced with 500 μl of fresh medium. At this time, a serial dilution of the sample to be assayed for GDNF activity was added to each well in duplicate and the plates were incubated in the 37° C. incubator. After a week, the cultures were treated for 24 hours with fluorodeoxyuridine (13 μg/ml) and uridine (33 μg/ml) to prevent excessive glial proliferation and subsequently fed with the above medium without fetal calf serum. The feeding medium was changed weekly.
Alternatively, chemically defined serum-free medium was used in which serum was replaced by a mixture of proteins; hormones and salts. The defined medium (DM) consisted of a mixture of MEM and F12 nutrient mixture (both Gibco, 1:1; vol/vol) with glucose (33 mM), glutamine (2 mM) NaHCO3 (24.5 mM), HEPES (15 mM), supplemented with transferrin (100 μg/ml), insulin (25 μg/ml), putrescine (60 μM), progesterone (20 nM), sodium selenite (30 nM), penicillin G (5 U/ml) and streptomycin (5 μg/ml). The osmolarity of the DM was adjusted to 325 by the addition of milli-Q H2O. (110-125 ml H2O/l). […] All assays reached in the following examples were done in serum-containing medium.
The functional status of the dopaminergic neurons may be assayed in these cultures by measuring dopamine uptake through specific “scavenger” transporters in the dopaminergic neurons and by counting the number of neurons positive for the dopamine synthetic enzyme tyrosine hydroxylase using immunohistochemistry.

[2] = tested on: sympathetic neurons from chick embryo sympathetic chain ganglia; experiment: Neuronal survival assay (MTT), sympathetic chain ganglia; assay type: cell-based; details: for fold lower than refolded rhGDNF in sympathetic neuron survival bioassay / apparent ED50 in the sympathetic neuron survival bioassay: prior to refolding; for apparent ED50 in the sympathetic neuron survival bioassay: exposed to 30 mM 2-mercaptoethanol
Description: Cultures of primary check embryo ciliary ganglia and sympathetic chain ganglia were prepared as previously described (Collins 1978 Develop. Biol. 65:50; Manthorpe et al. 1986 Develop. Brain Res. 25:191). Briefly, ciliary or sympathetic ganglia were removed from fertile, pathogen free chicken eggs that had been incubated for 8 and 10 days, respectively, at 38° C. in a humidified atmosphere. The ganglia were chemically dissociated by exposure first to Hands' Balanced Salt Solution without divalent cations, containing 10 mM HEPES buffer pH 7.2 for 10 min at 37° C., and then by exposure to a solution of 0.125% bactotrypsin 1:250 (Difco, Detroit, Mich.) in Hanks' Balanced Salt Solution modified as above for 12 min at 37° C. Trypsinization was stopped by addition of fetal calf serum to a final concentration of 10%.
After this treatment, ganglia were transferred to a solution consisting of Dulbecco's high glucose Modified Eagle Medium without bicarbonate containing 10% fetal calf serum and 10 mM HEPES, pH 7.2 and were mechanially dissociated by trituration approximately 10 times through a glass Pasteur pipet whose opening had been fire polished and constricted to a diameter such that it took 2 seconds to fill the pipet.
The dissociated ganglia were then plated in culture medium (Dulbecco's Modified Eagle Medium supplemented with 10% fetal calf serum, 4 mM glutamine, 60 mg/L penicillin-G, 25 mM HEPES, pH 7.2) in 100 mm diameter tissue culture dishes (40 dissociated ganglia per dish) for three hours. […] After three hours, the nonadherent nerve cells were collection by centrifugation, resuspended in culture medium, and plated in 50 μl per well onto half area 96 well microtiter tissue culture plates at a density of 1500 nerve cells per well. The microtiter wells had been previously exposed to a 1 mg/ml solution of poly-L-ornithine in 10 mM sodium borate, pH 8.4 overnight at 4° C., washed in distilled water and air dried.
Ten μl of a serial dilution of the sample to be assayed for neurotrophic activity was added to each well and the dishes were incubated for 20 hours at 37° C. in a humidified atmosphere containing 7.5% CO2. After 18 hours for ciliary and 40 hours for sympathetic ganglia, 15 μl per well of a 1.5 mg/ml solution of the tetrasolium dye MTT in Dulbecco's high glucose Modified Eagle Medium without bicarbonate containing 10 mM HEPES, pH 7.2, was added and the cultures placed in the 37° C. incubator for 4 hours. Then, 75 μl of a solution of 6.7 ml of 12 M HCl per liter of isopropanol was added and the contents of each well triturated 30 times to break open the cells and suspend the dye. The absorbance of 570 nm was determined relative to a 690 nm reference for each well using an automatic microtiter plate reader (Dynatech, Chantilly, Va.). The absorbance of wells which had not received any neurotrophic agent (negative controls) was substracted from the absorbance of sample-containing wells. The resulting absorbance is proportional to the number of living cells in each well, defined as those nerve cells capable of reducing the dye. The number of trophic units of neurotrophic activity was defined as the reciprocal of the dilution that gave 50% of maximal survival of nerve cells. Specific activity was determined by dividing the number of trophic units by the amount of protein present in the sample.

B1: refolded GDNF: recombinant mature human GDNF expressed in E. coli and refolded (protein)
chain: SNMPEDYPDQFDDVMDFIQATIKRLKRSPDKQMAVLPRRERNRQAAAANPENSRGKGRRGQRGKNRGCVLTAIHLNVTDLGLGYETKEELIFRYCSGSCDAAETTYDKILKNLSRNRRLVTDKVGQACCRPIAF
bioactivity in dopamine uptake assay [1]: fully active
ED50 for increasing dopamine uptake [1]: about 3 pg/ml
ED50 for increasing dopamine uptake ([1]; listed as rhGDNF): about 30 pg/ml
bioactivity in sympathetic neuron survival bioassay [2]: fully active
ED50 for sympathetic neuron survival ([2]; chick embryo (E10) sympathetic ganglia): about 3 ng/ml

B2: GDNF prior to refolding: E. coli-expressed human GDNF, exposed to 2-mercaptoethanol and purified by S- or Q-Sepharose, before refolding (protein, UniProt P39905 78-211, looked up)
Glial cell line-derived …: SPDKQMAVLPRRERNRQAAAANPENSRGKGRRGQRGKNRGCVLTAIHLNVTDLGLGYETKEELIFRYCSGSCDAAETTYDKILKNLSRNRRLVSDKVGQACCRPIAFDDDLSFLDDNLVYHILRKHSAKRCGCI
modifications: unrefolded, E. coli-expressed
bioactivity in dopamine uptake assay [1]: no detectable bioactivity
bioactivity in sympathetic neuron survival bioassay [2]: greatly reduced bioactivity

B3: 3. RP-HPLC: GDNF after first reverse-phase HPLC (protein, UniProt Q07731 78-211, looked up)
Glial cell line-derived …: B2 Glial cell line-derived … with M6A, V8A, N22S, D73E, T78M, N89S, V93T, I105V, N117S
modifications: purification fraction
SP. ACT (specific activity, dopamine uptake trophic units per protein) [1]: 12,000 TU/μg
FOLD (specific activity relative to B49 conditioned medium) [1]: 24,000
BIOACTIVITY [1]: 12 TU × 10^−3

B4: S-Sepharose chromatographed material: unrefolded human GDNF TU extract partially purified on S-Sepharose (protein, UniProt P39905 78-211, looked up)
Glial cell line-derived …: B2 Glial cell line-derived …
modifications: unrefolded, partially purified
fold lower than refolded rhGDNF in sympathetic neuron survival bioassay [2]: about 333 fold
apparent ED50 in the sympathetic neuron survival bioassay [2]: about 1 μg/ml

B5: 5. RP-HPLC: GDNF peak 3 after second reverse-phase HPLC (protein, UniProt Q07731 78-211, looked up)
Glial cell line-derived …: B2 Glial cell line-derived … with M6A, V8A, N22S, D73E, T78M, N89S, V93T, I105V, N117S
modifications: purification fraction
notes: GDNF peak 3 after second reverse-phase HPLC
SP. ACT (specific activity, dopamine uptake trophic units per protein) [1]: 17,000 TU/μg
FOLD (specific activity relative to B49 conditioned medium) [1]: 34,000
BIOACTIVITY [1]: 5 TU × 10^−3

B6: Q-Sepharose chromatographed material: unrefolded sulfonylated human GDNF extract partially purified on Q-Sepharose (protein, UniProt P39905 78-211, looked up)
Glial cell line-derived …: B2 Glial cell line-derived …
modifications: unrefolded, sulfonylated
fold lower than refolded rhGDNF in sympathetic neuron survival bioassay [2]: about 100 fold
apparent ED50 in the sympathetic neuron survival bioassay [2]: about 3 μg/ml

B7: 4. Preparative SDS-PAGE: GDNF eluted from preparative non-reducing SDS-PAGE (protein, UniProt Q07731 78-211, looked up)
Glial cell line-derived …: B2 Glial cell line-derived … with M6A, V8A, N22S, D73E, T78M, N89S, V93T, I105V, N117S
modifications: purification fraction
BIOACTIVITY [1]: 7 TU × 10^−3
